Test results from patent publication US20260092124A1 (published 2026).

Biological target: human CD40 (human, UniProt P25942 21-277)
Assay: cell binding (GpL luciferase, HT1080-CD40); single representative experiment

Chain of human CD40 (P25942 21-277): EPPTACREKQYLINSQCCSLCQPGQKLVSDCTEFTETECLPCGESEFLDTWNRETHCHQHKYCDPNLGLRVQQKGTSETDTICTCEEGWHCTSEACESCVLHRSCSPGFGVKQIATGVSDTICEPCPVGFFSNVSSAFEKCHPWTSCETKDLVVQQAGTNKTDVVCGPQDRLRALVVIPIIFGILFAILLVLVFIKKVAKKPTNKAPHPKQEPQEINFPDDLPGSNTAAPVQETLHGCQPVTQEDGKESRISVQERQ

B1: GpL-CD40L, a fusion protein of soluble CD40L and Gaussia princeps luciferase (GpL) (ligand)
chain: GDQNPQIAAHVISEASSKTTSVLQWAEKGYYTMSNNLVTLENGKQLTVKRQGLYYIYAQVTFCSNREASSQAPFIASLCLKSPGRFERILLRAANTHSSAKPCGQQSIHLGGVFELQPGASVFVNVTDPSQVSHGTGFTSFGLLKL
- Kd: 0.14 µg/mL
